Experimental data from US20240279356A1 (Xencor, published 2024).
Residue numbers refer to the chain shown, from its start. In names and notes the source's numbering stands.

B1: XENP31701 (bispecific antibody)
heavy: QVQLVQSGAEVKKPGASVKVSCKASGYTFTSYWMHWVRQAPGQGLEWMGMIHPNSDNTIYYEKFQGRVTMTVDKSISTAYMELSRLRSDDTAVYYCAIIITPVVPKFDYWGQGTLVTVSSASTKGPSVFPLAPSSKSTSGGTAALGCLVKDYFPEPVTVSWNSGALTSGVHTFPAVLQSSGLYSLSSVVTVPSSSLGTQTYICNVNHKPSDTKVDKKVEPKSCDKTHTCPPCPAPPVAGPSVFLFPPKPKDTLMISRTPEVTCVVVDVKHEDPEVKFNWYVDGVEVHNAKTKPREEEYNSTYRVVSVLTVLHQDWLNGKEYKCKVSNKALPAPIEKTISKAKGQPREPQVYTLPPSREEMTKNQVSLTCDVSGFYPSDIAVEWESDGQPENNYKTTPPVLDSDGSFFLYSKLTVDKSRWEQGDVFSCSVMHEALHNHYTQKSLSLSPGK
scFv-Fc: not shown
light: DIVMTQSPDSLAVSLGERATINCKASHDVGTSVAWYQQKPGQSPKLLIYWASTRHTGVPDRFTGSGSGTDFTLTISSLQAEDVAVYFCQQYSSYPLTFGAGTKLEIKRTVAAPSVFIFPPSDEQLKSGTASVVCLLNNFYPREAKVQWKVDNALQSGNSQESVTEQDSKDSTYSLSSTLTLSKADYEKHKVYACEVTHQGLSSPVTKSFNRGEC
notes: VH WT, VL WT; also called MESO-C H1_L1; copies: 1 + 1 + 1
B2: XENP32560 (bispecific antibody)
Fab-Fc heavy chain (anti-MSLN VH): B1 heavy
scFv-Fc heavy chain (anti-CD3 H1.30_L1.47): not shown
light chain (anti-MSLN VL): B1 light with H27Q
notes: 1+1 Fab-scFv-Fc bsAb; VH WT, VL H27Q (Kabat); also called MESO-C H1_L1.2
B3: XENP32569 (bispecific antibody)
heavy: B1 heavy with N54Q
scFv-Fc: not shown
light: B1 light with D28S
notes: VH N53Q, VL D28S (Kabat); also called MESO-C H1.5_L1.3; copies: 1 + 1 + 1
B4: XENP32566 (bispecific antibody)
Fab-Fc heavy chain (anti-MSLN VH): B1 heavy
scFv-Fc heavy chain (anti-CD3 H1.30_L1.47): not shown
light chain (anti-MSLN VL): B1 light with T56S
notes: 1+1 Fab-scFv-Fc bsAb; VH WT, VL T56S (Kabat); also called MESO-C H1_L1.8
B5: XENP32554 (bispecific antibody)
Fab-Fc heavy chain (anti-MSLN VH): B1 heavy with N54Q
scFv-Fc heavy chain (anti-CD3 H1.30_L1.47): not shown
light chain (anti-MSLN VL): B1 light
notes: 1+1 Fab-scFv-Fc bsAb; VH N53Q, VL WT (Kabat); also called MESO-C H1.5_L1
B6: XENP32570 (bispecific antibody)
heavy: B1 heavy with D56G
scFv-Fc: not shown
light: B1 light with D28S
notes: VH D55G, VL D28S (Kabat); also called MESO-C H1.6_L1.3; copies: 1 + 1 + 1
B7: XENP32558 (bispecific antibody)
Fab-Fc heavy chain (anti-MSLN VH): B1 heavy with K106R
scFv-Fc heavy chain (anti-CD3 H1.30_L1.47): not shown
light chain (anti-MSLN VL): B1 light
notes: 1+1 Fab-scFv-Fc bsAb; VH K100bR, VL WT (Kabat); also called MESO-C H1.9_L1
B8: XENP32553 (bispecific antibody)
Fab-Fc heavy chain (anti-MSLN VH): B1 heavy with H52N
scFv-Fc heavy chain (anti-CD3 H1.30_L1.47): not shown
light chain (anti-MSLN VL): B1 light
notes: 1+1 Fab-scFv-Fc bsAb; VH H52N, VL WT (Kabat); also called MESO-C H1.4_L1
B9: XENP32555 (bispecific antibody)
Fab-Fc heavy chain (anti-MSLN VH): B1 heavy with D56G
scFv-Fc heavy chain (anti-CD3 H1.30_L1.47): not shown
light chain (anti-MSLN VL): B1 light
notes: 1+1 Fab-scFv-Fc bsAb; VH D55G, VL WT (Kabat); also called MESO-C H1.6_L1
B10: XENP32568 (bispecific antibody)
Fab-Fc heavy chain (anti-MSLN VH): B1 heavy
scFv-Fc heavy chain (anti-CD3 H1.30_L1.47): not shown
light chain (anti-MSLN VL): B1 light with Y94T
notes: 1+1 Fab-scFv-Fc bsAb; VH WT, VL Y94T (Kabat); also called MESO-C H1_L1.10
B11: XENP32551 (bispecific antibody)
Fab-Fc heavy chain (anti-MSLN VH): B1 heavy with W33Y
scFv-Fc heavy chain (anti-CD3 H1.30_L1.47): not shown
light chain (anti-MSLN VL): B1 light
notes: 1+1 Fab-scFv-Fc bsAb; VH W32Y, VL WT (Kabat); also called MESO-C H1.2_L1
B12: XENP32564 (bispecific antibody)
Fab-Fc heavy chain (anti-MSLN VH): B1 heavy
scFv-Fc heavy chain (anti-CD3 H1.30_L1.47): not shown
light chain (anti-MSLN VL): B1 light with V33L
notes: 1+1 Fab-scFv-Fc bsAb; VH WT, VL V33L (Kabat); also called MESO-C H1_L1.6
B13: XENP32559 (bispecific antibody)
Fab-Fc heavy chain (anti-MSLN VH): B1 heavy
scFv-Fc heavy chain (anti-CD3 H1.30_L1.47): not shown
light chain (anti-MSLN VL): B1 light with A25S
notes: 1+1 Fab-scFv-Fc bsAb; VH WT, VL A25S (Kabat); also called MESO-C H1_L1.1
B14: XENP32556 (bispecific antibody)
Fab-Fc heavy chain (anti-MSLN VH): B1 heavy with I98R
scFv-Fc heavy chain (anti-CD3 H1.30_L1.47): not shown
light chain (anti-MSLN VL): B1 light
notes: 1+1 Fab-scFv-Fc bsAb; VH I94R, VL WT (Kabat); also called MESO-C H1.7_L1
B15: XENP32557 (bispecific antibody)
Fab-Fc heavy chain (anti-MSLN VH): B1 heavy with T101S
scFv-Fc heavy chain (anti-CD3 H1.30_L1.47): not shown
light chain (anti-MSLN VL): B1 light
notes: 1+1 Fab-scFv-Fc bsAb; VH T97S, VL WT (Kabat); also called MESO-C H1.8_L1
B16: XENP32565 (bispecific antibody)
Fab-Fc heavy chain (anti-MSLN VH): B1 heavy
scFv-Fc heavy chain (anti-CD3 H1.30_L1.47): not shown
light chain (anti-MSLN VL): B1 light with H55E
notes: 1+1 Fab-scFv-Fc bsAb; VH WT, VL H55E (Kabat); also called MESO-C H1_L1.7
B17: XENP32550 (bispecific antibody)
Fab-Fc heavy chain (anti-MSLN VH): B1 heavy with S31G
scFv-Fc heavy chain (anti-CD3 H1.30_L1.47): not shown
light chain (anti-MSLN VL): B1 light
notes: 1+1 Fab-scFv-Fc bsAb; VH S31G, VL WT (Kabat); also called MESO-C H1.1_L1

Tests used:
cyno MSLN = target: T1, cyno MSLN (Macaca fascicularis (cynomolgus)); assay: Octet BLI; bsAb on anti-human Fc sensor, cyno MSLN as analyte, one concentration
T1 construct: soluble antigen for Octet; also called cynomolgus MSLN

human MSLN antigen = target: T2, human MSLN antigen (human, UniProt Q13421 296-580, limits assumed); assay: Octet BLI; bsAb on anti-human Fc sensor, human MSLN as analyte, one concentration; parameters: Response: unit not given here
T2 construct: Soluble antigen for BLI; also called Mesothelin; MESO
T2 sequence (Q13421 other isoform, or with tags, fused parts or gaps limits assumed): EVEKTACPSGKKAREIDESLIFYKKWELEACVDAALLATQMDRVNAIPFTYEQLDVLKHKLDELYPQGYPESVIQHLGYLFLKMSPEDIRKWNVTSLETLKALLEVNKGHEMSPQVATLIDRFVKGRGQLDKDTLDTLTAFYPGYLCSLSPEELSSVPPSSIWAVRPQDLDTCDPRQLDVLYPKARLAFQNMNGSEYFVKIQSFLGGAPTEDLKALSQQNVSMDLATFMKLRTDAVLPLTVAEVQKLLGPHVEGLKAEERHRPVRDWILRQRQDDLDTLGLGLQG
Text: Variants of MESO-C were engineered by introducing point substitutions into the variable heavy region (VH) and the variable light region (VL) to generate 11 VH variants and 16 VL variants (sequences for which are depicted in FIG. 18 as H1.1-H1.13 and in FIG. 19 as L1.1-L1.18). An additional 4 VL variants were generated by combining useful point substitutions (sequences for which are depicted in FIG. 19 as L1.19-L1.22). WT and variant variable heavy regions were paired with WT and variant variable light regions to generate variant variable regions (Fvs) which were produced in the context of anti-MSLN×anti-CD3 bispecific antibodies. The bispecific antibodies were screened for MSLN binding affinity using Octet®, a BioLayer Interferometry (BLI)-based method. Experimental steps for Octet® generally include the following: Immobilization (capture of ligand to a biosensor); Association (dipping of ligand-coated biosensors into wells containing the analyte); and Dissociation (returning of biosensors to well containing buffer). In an initial screening, anti-human Fc sensors were used to capture the bispecific mAbs and dipped into human MSLN antigen (one concentration to screen large library). The resulting dissociation constant of illustrative variants (KD), association rate (kₐ), dissociation rate (kd), as well as sensorgram response are depicted in FIG. 20. In further screening of favorite variants identified in the initial screen (and combination variants), bispecific mAbs were dipped into multiple concentrations of human MSLN antigen, data for which are depicted in FIG. 21 (from various screens).

| Binder | Kd (cyno MSLN) [nM] | Response (cyno MSLN) | koff (cyno MSLN) [s⁻¹] | kon (cyno MSLN) [M⁻¹ s⁻¹] | Kd (human MSLN antigen) [nM] | Response (human MSLN antigen) | koff (human MSLN antigen) [s⁻¹] | kon (human MSLN antigen) [M⁻¹ s⁻¹] |
| --- | --- | --- | --- | --- | --- | --- | --- | --- |
| B1 | 0.0938 | 0.737 | 5.74e-05 | 612000 | 0.0805 | 0.86 | 4.69e-05 | 583000 |
| B2 | 1.2 | 0.948 | 0.000762 | 634000 | 0.633 | 1.03 | 0.000383 | 605000 |
| B3 | 0.189 | 0.867 | 0.000125 | 660000 | 0.135 | 0.978 | 9.35e-05 | 693000 |
| B4 | 0.163 | 0.941 | 0.0001 | 616000 | 0.18 | 1.05 | 0.000113 | 627000 |
| B5 | 0.414 | 1.03 | 0.00023 | 555000 | 0.483 | 1.13 | 0.000268 | 555000 |
| B6 | 0.155 | 0.95 | 0.000105 | 676000 | 0.103 | 0.981 | 7.35e-05 | 717000 |
| B7 | 0.7 | 1.11 | 0.000166 | 238000 | 0.795 | 1.17 | 0.000198 | 249000 |
| B8 | 0.585 | 1.06 | 0.000337 | 575000 | 0.687 | 1.16 | 0.00037 | 539000 |
| B9 | 0.603 | 1.11 | 0.000342 | 566000 | 0.684 | 1.23 | 0.000375 | 549000 |
| B10 |  | 0.0728 |  |  |  | 0.107 |  |  |
| B11 | 1.66 | 1.1 | 0.000822 | 495000 | 1.6 | 1.19 | 0.000773 | 483000 |
| B12 | 0.0297 | 0.849 | 2.01e-05 | 676000 | 0.0861 | 0.952 | 5.68e-05 | 660000 |
| B13 | 0.223 | 1.04 | 0.000128 | 575000 | 0.283 | 1.11 | 0.000161 | 569000 |
| B14 | 0.395 | 1.07 | 0.000157 | 399000 | 0.469 | 1.18 | 0.000199 | 425000 |
| B15 | 0.62 | 1.09 | 0.000321 | 518000 | 0.721 | 1.15 | 0.000374 | 519000 |
| B16 | 0.255 | 1 | 0.000151 | 592000 | 0.286 | 1.11 | 0.000169 | 590000 |
| B17 | 0.254 | 0.891 | 0.000146 | 576000 | 0.601 | 1.02 | 0.000314 | 522000 |
